Publication PMC3494860 (The Journal of Cell Biology, 2012)

Target: T1, GST-PATJ (Drosophila melanogaster, UniProt Q9NB04 1-871)
T1 sequence (looked up): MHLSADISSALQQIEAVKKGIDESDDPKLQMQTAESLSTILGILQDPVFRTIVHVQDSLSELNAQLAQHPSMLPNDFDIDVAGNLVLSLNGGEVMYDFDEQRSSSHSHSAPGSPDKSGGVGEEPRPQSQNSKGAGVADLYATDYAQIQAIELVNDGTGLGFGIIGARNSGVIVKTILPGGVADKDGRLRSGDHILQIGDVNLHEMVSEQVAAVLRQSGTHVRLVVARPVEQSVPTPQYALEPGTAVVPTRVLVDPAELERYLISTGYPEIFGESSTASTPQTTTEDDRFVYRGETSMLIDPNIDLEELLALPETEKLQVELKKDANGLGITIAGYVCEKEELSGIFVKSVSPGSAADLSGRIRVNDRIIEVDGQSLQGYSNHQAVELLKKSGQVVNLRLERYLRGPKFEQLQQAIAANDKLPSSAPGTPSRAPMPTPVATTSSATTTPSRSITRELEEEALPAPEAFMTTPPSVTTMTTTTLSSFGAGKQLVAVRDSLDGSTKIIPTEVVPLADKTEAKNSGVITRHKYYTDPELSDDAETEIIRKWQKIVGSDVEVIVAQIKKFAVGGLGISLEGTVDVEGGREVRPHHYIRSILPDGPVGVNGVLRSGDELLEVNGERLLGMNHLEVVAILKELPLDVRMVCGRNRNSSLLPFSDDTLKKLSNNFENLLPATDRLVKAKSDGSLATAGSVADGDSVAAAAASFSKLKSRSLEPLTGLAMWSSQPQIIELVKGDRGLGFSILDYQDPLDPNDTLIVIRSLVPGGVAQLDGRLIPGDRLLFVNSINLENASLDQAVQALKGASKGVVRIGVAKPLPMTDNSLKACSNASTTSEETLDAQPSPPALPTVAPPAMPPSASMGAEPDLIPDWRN
Experiment: pull-down

binding result: binds
B1: MBP-Sqh (natural protein, Drosophila melanogaster, UniProt P40423 1-174, looked up)
chain: MSSRKTAGRRATTKKRAQRATSNVFAMFDQAQIAEFKEAFNMIDQNRDGFVEKEDLHDMLASLGKNPTDDYLDGMMNEAPGPINFTMFLTLFGERLQGTDPEDVIKNAFGCFDEENMGVLPEDRLRELLTTMGDRFTDEDVDEMYREAPIKNGLFDYLEFTRILKHGAKDKDEQ
